Results as given in patent US7553821B2, “Methods for selectively modulating survivin apoptosis pathways” (Yale University, priority 2000, dated 2009).

Molecular target: T1, p34^cdc2 (Homo sapiens, UniProt P06493)
T1 construct: immunoprecipitated with an antibody to HA, and immunoblotted with antibodies to p34^cdc2 or HA; endogenous in cells; host or cells: HeLa
Assay: Co-immunoprecipitation of survivin and p34cdc2 from HeLa cells
Format: binding
Details: asynchronously growing transfected HeLa cells
Experimental: The experimental procedures are the same as in A, except that asynchronously growing HeLa cells were transfected with HA-survivin or HA-survivin(T34A), immunoprecipitated with an antibody to HA, and immunoblotted with antibodies to p34^cdc2 or HA. W, whole HeLa cell extract.
Transfection experiments. For transient transfection, HeLa cells in C-6 tissue culture plates (Costar, Cambridge, Mass.) at ˜60-70% confluency, were incubated in 1 ml of serum-free OptiMEM medium (Life Technologies, Gaithersburg, Md.) for 20 min, and transfected with 2.5 μg of the various plasmid cDNAs plus 9 μl Lipofectamine (Life Technologies). After a 5 h incubation at 37° C., the mixture was aspirated and substituted with complete growth medium for 48-72 h. To generate stable YUSAC-2 transfectants, a survivin(T34A) cDNA was inserted into the HindIII-SpeI sites of the pTet-splice vector (Dr. D. Schatz, Yale University School of Medicine), downstream of the regulatory sequences of the Tet-resistance operon (TetO). YUSAC-2 cells were transfected with 0.8 μg pTet-T34A, 0.8 μg of the transactivation/selection plasmid ptTA-Neo and 5 μl Lipofectamine in 1 ml of OptiMem. […] Gated GFP-expressing cells were analyzed for DNA content by flow cytometry on a FACSort (Becton Dickinson, San Jose, Calif.) using a Cell Quest software. […]

T1 sequence (P06493 whole entry): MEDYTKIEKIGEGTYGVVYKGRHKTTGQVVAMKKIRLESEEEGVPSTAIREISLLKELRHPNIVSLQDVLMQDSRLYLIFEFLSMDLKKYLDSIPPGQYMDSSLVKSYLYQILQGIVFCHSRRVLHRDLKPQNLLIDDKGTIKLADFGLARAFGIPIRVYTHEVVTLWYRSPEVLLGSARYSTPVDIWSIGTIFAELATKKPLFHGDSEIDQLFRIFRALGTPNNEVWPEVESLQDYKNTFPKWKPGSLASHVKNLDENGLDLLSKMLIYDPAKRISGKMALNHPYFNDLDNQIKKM

## survivin(T34A): dominant-negative, non-phosphorylatable survivin mutant with Thr34→Ala substitution, expressed from transfected cDNA (also HA- or GFP-tagged)
  p34^cdc2 in HA immunoprecipitates by Western blotting: contained a prominent p34^cdc2 band
